US20240083996A1, “COMPOSITION FOR PROPHYLAXIS OR TREATMENT OF IL-8 RELATED DISEASES” (Chugai Seiyaku Kabushiki Kaisha, priority 2016, published 2024)

Columns and labels:
adenomyosis lesions = test: Adenomyosis complication in surgically-induced endometriosis monkey models; type: in vivo, cynomolgus monkeys; settings: one case per group, compared to the vehicle group (FIG. 37)
Description: After the final laparoscopic observation six months after the start of antibody administration in surgically-induced endometriosis monkey models, the uteri collected during autopsy were fixed with 10% neutral buffered formalin and HE-stained for observation. Endometrial tissues analogous to those of adenomyosis were strongly seen in the uterus in one case of the vehicle group as well as in one case of the antibody administration group. […] Thus, the monkeys were considered as being a human adenomyosis complication model, and the endometrial tissues in the myometria of these single cases were compared.

[1] = system: endometriosis nodular lesions and adhesion; type: in vivo, cynomolgus monkeys
Description: Female cynomolgus monkeys of 8 to 14 years of age with regular sexual cycle (provided by the Tsukuba Primate Research Center at the National Institutes of Biomedical Innovation, Health and Nutrition) were laparotomized under anesthesia during the period corresponding to the luteal phase. The uterine corpus was removed by dissecting in a V shape. Then, the uterine corpus was cut into 5 to 10 mm cubes while leaving the smooth muscle layer of the uterus, and one and two pieces were transplanted onto the right abdominal wall and left abdominal wall (cranial and caudal sides), respectively, in such a manner that the endometrium part is in contact with the peritoneum by suturing with an absorbable suture and formed the transplant. After excision, the uterus was sutured with absorbable suture. Then, the remaining endometrial tissues were finely cut and suspended in 5 ml of 2 ng/ml Hepatocyte Growth Factor solution (R&D systems), and this was seeded in the peritoneal cavity for transplantation, followed by closure of the abdomen. Anesthesia was performed using balanced anesthesia of ketamine/xylazine (mixed at an adequate ratio of about 2:1); however, anesthesia was maintained with isoflurane depending on the maintenance period of anesthesia. The body temperature was maintained and controlled during surgery using a heating pad and the condition was monitored electrocardiographically. The antagonist Antisedan (at roughly the same amount as that of xylazine) and antibiotic cephradine were administered at the time of awakening after surgery. The pain reliever Zalban was administered for two days after surgery, and the monkeys were observed regularly every day to confirm the absence of post-surgical abnormalities. In laparoscopic observation, anesthesia and post-surgical monitoring were also performed in the same way.
Laparoscopic observation was carried out four months, nine months (3 months after administration), and 12 months (6 months after administration) following the surgical induction of endometriosis described above, and the pathological conditions of endometriosis were assessed as follows.
The abdomen was incised in the median line under anesthesia, and laparoscopic observation was performed by inserting a trocar and then introducing a laparoscope. The laparoscope was connected to a video system (KARL STORZ) and a monitor. The monitor was used for intraperitoneal observation, and the video system was used for recording. Then, the peritoneal cavity was filled with carbon dioxide gas using Intra-abdominal Insufflation Unit (OLYMPUS) to expand the abdomen, and graduated bars and forceps were inserted from the ventral portion. The size of the lesion was measured using the graduated bar or graduated forceps.
The sizes (width, height, and depth) of nodular lesions formed by suturing the endometrial tissues were measured and the volumes were calculated based on: width (mm)×height (mm)×depth (mm). The lesions and adhesion formed by seeding endometrial tissues after fine cutting were assessed for the site, area, and depth of adhesion and the size of lesion by laparoscopic observation based on modified r-AFS score modified for monkeys from the r-AFS score for clinical use. […] The item on adhesion to the vesicouterine pouch was added, because in the monkey model, the frequency of adhesion to the urinary bladder is higher than in humans. The method for assessing adhesion to the urinary bladder was the same scoring as that used for adhesion to the Douglas' pouch. • 2. Since monkey's body and organ sizes are smaller than those of humans, the criteria of lesion size scoring were altered to: <3 mm, 3-10 mm, and >10 mm.
Based on the results of laparoscopic observation four months after induction, the individuals that met the criteria were selected and grouped. The criteria for the selection are as follows: • 1. Engraftment of endometrial transplant confirmed on the laparoscopic observation four months after induction. • 2. […]

[2] = 10 mg/kg i.v. q4w, six months of administration
[3] = Table 26, proliferation lesion, per nodular lesion (animals 112, 105, 106, 121, 119, 123; sites R, L1, L2), 10 mg/kg

B1: H1009/L395-F1974m: H1009-F1974m (SEQ ID NO:36) heavy chain, L395-kOMT light chain; the anti-IL-8 antibody of Table 29 (antibody)
heavy: QVQLVESGGGLVQPGGSLRLSCAASGFTFSDYYLSWVRQAPGKGLEWVGLIRNKDNYHTPEYSASVKGRFTISRDDSKNSLYLTMSDLKTEDTAVYYCARENHRYDVELAYWGQGTLVTVSSASTKGPSVFPLAPSSKSTSGGTAALGCLVKDYFPEPVTVSWNSGALTSGVHTFPAVLQSSGLYSLSSVVTVPSSSLGTQTYICNVNHKPSNTKVDKKVEPKSCDKTHTCPPCPAPELRRGPSVFLFPPKPKDTLMISRTPEVTCVVVDVSHEDPEVKFNWYVDGVEVHNAKTKPREEQYNSTYRVVSVLTVLHQDWLNGKEYKCKVSNKGLPSSIEKTISKAKGQPREPQVYTLPPSREEMTKNQVSLTCLVKGFYPSDIAVEWESNGQPENNYKTTPPVLDSDGSFFLYSKLTVDKSRWQQGNVFSCSVLHEALHAHTTRKELSLSP
light: DIQMTQSPSSLSASVGDRVTITCRASEIIYSYLAWYQQKPGKAPKLLIYKAKTHADGVPSRFSGSGSGTDFTFTISSLQPEDIATYYCKHHFGFPRTFGQGTKVEIKRTVAAPSVFIFPPSDEQLKSGTASVVCLLNNFYPREAKVQWKVDNALQSGNSQESVTEQDSKDSTYSLSSTLTLSKADYEKHKVYACEVTHQGLSSPVTKSFNRGEC
- histopathology of adenomyosis lesions in the uterus (HE staining) (adenomyosis lesions): atrophy of endometrial epithelia in the adenomyosis lesions as well as reduction and atrophy of stromal cells were observed
- frequency of nodular lesions of type A: proliferative, ≥500 mm3 [1, 2]: 0%
- frequency of nodular lesions of type B: proliferative, <500 mm^3 [1, 2]: 8%
- frequency of nodular lesions of type C: no change [1, 2]: 33%
- frequency of nodular lesions of type D: decreased [1, 2]: 58%
- number of nodular lesions of type A: proliferative, ≥500 mm3 / lesions analysed [1, 2]: (0/12)
- number of nodular lesions of type B: proliferative, <500 mm^3 / lesions analysed [1, 2]: (1/12)
- number of nodular lesions of type C: no change / lesions analysed [1, 2]: (4/12)
- number of nodular lesions of type D: decreased / lesions analysed [1, 2]: 7/12 and (7/12)
- Atrophy/decrease, stromal cell (P) [1, 3]: ±
- Decreased insterstitium (P) [1, 3]: ±
- change of size r-AFS score ([1]; after minus before administration, versus vehicle group (FIG. 35-1)): tended to decrease
- change of total r-AFS score ([1]; after minus before administration, versus vehicle group, p=0.0070 (FIG. 35-1)): clearly decreased as compared to the vehicle group
- change of adhesion score ([1]; after minus before administration, versus vehicle group, p=0.0096 (FIG. 35-1)): clearly decreased as compared to the vehicle group
- frequency of deep lesions (endometriosis gland ducts invaded up to the muscle layer of abdominal wall) ([1]; anti-antibody-positive individuals excluded, vehicle group 5/18 lesions): 1/11
- muscle tissue regeneration ([1]; autopsy): muscle tissue regeneration, which was not seen in the vehicle group, was observed
- histopathology of the grafts and grafted sites (HE staining) ([1]; autopsy after final laparoscopic observation, compared to the vehicle group): atrophic changes of proliferative epithelia and stromal cells as well as reduction of the interstitium whose major component is collagenous fibers was observed
- number of lesions with hemosiderin / lesions ([1]; autopsy, vehicle group 9/16): 4/17
- frequency of lesions with hemosiderin ([1]; autopsy, vehicle group 56%): 24%
- total modified r-AFS score before and after administration ([1]; scores recorded during laparoscopic surgery, Wilcoxon's signed-rank-sum test, P=0.875 (FIG. 35-2)): the score did not change
